From publication PMC9274488

Tests used:
[1] = nuclear/cytoplasmic fractionation blot and immunofluorescence; conditions: glycan lost; control: control cells (sh-CTRL)
[2] = western blot, PANC1 and PaTU8988; conditions: glycan lost; control: sh-CTRL
western blot = conditions: glycan lost; control: untreated
[3] = cycloheximide chase, western blot; conditions: glycan lost; control: without BADGP

B1: ZEB1: OGT knockdown (protein)
parent chain: MKVTNYNTVVETNSDSDDEDKLHIVEEESVTDAADCEGVPEDDLPTDQTVLPGRSSEREGNAKNCWEDDTGKEGQEILGPEAQADEAGCTVKDDECESDAENEQNHDPNVEEFLQQQDTAVIFPEAPEEDQRQGTPEASGHDENGTPDAFSQLLTCPYCDRGYKRFTSLKEHIKYRHEKNEDNFSCSLCSYTFAYRTQLERHMTSHKSGRDQRHVTQSGCNRKFKCTECGKAFKYKHHLKEHLRIHSGEKPYECPNCKKRFSHSGSYSSHISSKKCISLIPVNGRPRTGLKTSQCSSPSLSASPGSPTRPQIRQKIENKPLQEQLSVNQIKTEPVDYEFKPIVVASGINCSTPLQNGVFTGGGPLQATSSPQGMVQAVVLPTVGLVSPISINLSDIQNVLKVAVDGNVIRQVLENNQANLASKEQETINASPIQQGGHSVISAISLPLVDQDGTTKIIINYSLEQPSQLQVVPQNLKKENPVATNSCKSEKLPEDLTVKSEKDKSFEGGVNDSTCLLCDDCPGDINALPELKHYDLKQPTQPPPLPAAEAEKPESSVSSATGDGNLSPSQPPLKNLLSLLKAYYALNAQPSAEELSKIADSVNLPLDVVKKWFEKMQAGQISVQSSEPSSPEPGKVNIPAKNNDQPQSANANEPQDSTVNLQSPLKMTNSPVLPVGSTTNGSRSSTPSPSPLNLSSSRNTQGYLYTAEGAQEEPQVEPLDLSLPKQQGELLERSTITSVYQNSVYSVQEEPLNLSCAKKEPQKDSCVTDSEPVVNVIPPSANPINIAIPTVTAQLPTIVAIADQNSVPCLRALAANKQTILIPQVAYTYSTTVSPAVQEPPLKVIQPNGNQDERQDTSSEGVSNVEDQNDSDSTPPKKKMRKTENGMYACDLCDKIFQKSSSLLRHKYEHTGKRPHECGICKKAFKHKHHLIEHMRLHSGEKPYQCDKCGKRFSHSGSYSQHMNHRYSYCKREAEERDSTEQEEAGPEILSNEHVGARASPSQGDSDERESLTREEDEDSEKEEEEEDKEMEELQEEKECEKPQGDEEEEEEEEEVEEEEVEEAENEGEEAKTEGLMKDDRAESQASSLGQKVGESSEQVSEEKTNEA
With B1 as the protein, how does the localisation_or_trafficking [1] read?
Its localisation_or_trafficking is “decreases”.

B2: ZEB1: sh-OGT (protein)
parent chain: B1 parent chain
Which expression_or_secretion [2] does the source give for B2 here?
Its expression_or_secretion is “decreases”.

B3: ZEB1: BADGP (protein)
parent chain: B1 parent chain
For B3, which expression_or_secretion (western blot) is on record?
The expression_or_secretion was “decreases”.

What about the degradation_or_half_life [3] of the same protein?
Its degradation_or_half_life is “decreases”.
